Results taken from US20220177587A1, “METHODS AND USES OF VARIANT CD80 FUSION PROTEINS AND RELATED CONSTRUCTS” (Alpine Immune Sciences, Inc., priority 2018, published 2022).
One block for each molecule: values may come before it.

Legend:
[1] = molecular target: T1, CD28 (Homo sapiens, UniProt P10747); experiment: Flow binding to Jurkat/IL2 reporter cells (CD28); set-up: host or cells: Jurkat cells expressing an IL-2-luciferase reporter
Method: Binding of selected immunomodulatory fusion proteins to cognate binding partners was assessed. […] Cells were sorted in a Bio-Rad S3 Cell Sorter (Bio-Rad Corp., USA) to >98% purity. Jurkat/IL2 reporter cells, which endogenously express CD28, were used to detect binding to CD28.
For staining and analysis by flow cytometry, 100,000 cells of appropriate transfected cells were plated in 96-well round bottom plates. Cells were spun down and resuspended in staining buffer (phosphate buffered saline (PBS), 1% bovine serum albumin (BSA), and 0.1% sodium azide) for 20 minutes to block non-specific binding. […] Primary staining was performed on ice for 45 minutes, before washing cells in staining buffer twice. Phycoerythrin (PE)-conjugated anti-human Fc (Jackson ImmunoResearch, USA) was diluted 1:150, added to cells and incubated another 30 minutes on ice. Cells were then washed twice with 150 μL/well stain buffer, fixed in 2% formaldehyde/PBS, and analyzed on Intellicyt flow cytometer (Intellicyt Corp., USA). PE Mean Fluorescence Intensity (MFI) was calculated for each cell type with FlowJo Version 10 software (FlowJo LLC, USA).
Binding assays were carried out to assess the specificity and affinity of multivalent proteins to cell-expressed CTLA-4, CD28, and PD-L1 counter structures.
The EC50 for binding also was determined.

[2] = molecular target: huCTLA4 (Homo sapiens, UniProt P16410); experiment: Flow binding to CHO cells stably expressing CTLA4; set-up: huCTLA4 and huPD-L1, full-length mammalian surface expression constructs were generated; expressed in transfected cells; host or cells: CHO cells, lentiviral transduction, sorted to >98% purity; details: for CTLA4 MFI at 33.3 nM: CHO cells stably expressing CTLA4
Outline: (§1)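 Cells were first blocked in PBS with 1% BSA and 0.1% sodium azide. Primary staining with fusion protein ran 45 min on ice, and secondary staining with PE anti-human Fc at 1:150 ran 30 min on ice.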

[3] = molecular target: huPD-L1 (Homo sapiens, UniProt Q9NZQ7); experiment: Flow binding to CHO cells stably expressing PD-L1; set-up: huCTLA4 and huPD-L1, full-length mammalian surface expression constructs were generated; expressed in transfected cells; host or cells: CHO cells, lentiviral transduction, sorted to >98% purity; details: for PD-L1 MFI at 33.3 nM: CHO cells stably expressing PD-L1
Outline: as §1

[4] = molecular target: T1, CD28; experiment: Jurkat/IL2 + CHO/OKT3 +/- PD-L1 reporter assay: PD-L1-dependent CD28 costimulation; format: cell-based; set-up: host or cells: Jurkat cells expressing an IL-2-luciferase reporter; details: Jurkat/IL2 + CHO/OKT3/PD-L1, 5.0 nM
Outline: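 Readout is relative luminescence from lysed cocultures: test protein given 15 min at room temperature to Jurkat cells before adding CHO artificial APCs displaying OKT3 alone or OKT3 plus PD-L1, then 5 h at 37 °C, 5% CO2.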

[5] = Table E4, 33.3 nM, Jurkat cells (CD28)
[6] = Table E4, MFI ratio to WT CD80 ECD-Fc (R&D) at 33.3 nM
[7] = Table E4, 33.3 nM variant CD80 IgV-Fc
[8] = Table E4, binding to PD-L1 compared to binding to CD28
[9] = Table E11, 33.3 nM, listed as WT CD80 ECD-Fc = 1.0
[10] = Table E11, Jurkats (CD28), 33.3 nM
[11] = Table E19, Jurkats (CD28), 33.3 nM
[12] = Table E23, CD80 IgV-Fc (inert) at 33.3 nM, Jurkat (CD28)
[13] = Table E23, CD80 IgV-Fc (inert) at 33.3 nM

Chain of huCTLA4 (P16410 36-223): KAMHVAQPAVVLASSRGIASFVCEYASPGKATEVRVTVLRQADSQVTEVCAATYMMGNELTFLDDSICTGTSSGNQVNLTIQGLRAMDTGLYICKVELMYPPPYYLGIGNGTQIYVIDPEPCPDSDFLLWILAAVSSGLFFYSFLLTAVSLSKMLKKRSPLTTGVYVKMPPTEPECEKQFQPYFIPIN
Chain of huPD-L1 (Q9NZQ7 19-290): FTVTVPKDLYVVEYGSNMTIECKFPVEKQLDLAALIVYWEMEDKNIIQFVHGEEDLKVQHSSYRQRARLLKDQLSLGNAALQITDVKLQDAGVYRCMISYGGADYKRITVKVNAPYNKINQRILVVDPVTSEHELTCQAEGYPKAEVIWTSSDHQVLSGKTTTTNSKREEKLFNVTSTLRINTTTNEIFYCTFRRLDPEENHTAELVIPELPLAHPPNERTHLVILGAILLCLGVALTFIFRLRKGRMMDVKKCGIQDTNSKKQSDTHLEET

B1: E35D/M47V/N48KN68M/K89N (protein)
chain: VIHVTKEVKEVATLSCGHNVSVEELAQTRIYWQKDKKMVLTMMSGDVKIWPEYKNRTIFDITNNLSIMILALRPSDEGTYECVVLKYENDAFKREHLAEVTLSVKAD
CD28 MFI at 33.3 nM [1, 5]: 11736 | CD28 Fold change to WT CD80 [1, 6]: 0.65 | CTLA4 MFI at 33.3 nM [2, 7]: 807 | CTLA4 Fold change to WT CD80 [2, 6]: 0.01 | PD-L1 MFI at 33.3 nM ([3]; Table E4, 33.3 nM): 89775 | PD-L1 Fold change to WT CD80 [3, 6]: 7.56 | Ratio of PDL1:CD28 [3, 8]: 8

B2: E35D/L85Q/K93I/E95V/L97Q (protein)
chain: VIHVTKEVKEVATLSCGHNVSVEELAQTRIYWQKDKKMVLTMMSGDMNIWPEYKNRTIFDITNNLSIVILALRPSDEGTYECVVQKYEKDAFTRVHQAEVTLSVKAD
CD28 MFI at 33.3 nM [1, 5]: 400 | CD28 Fold change to WT CD80 [1, 6]: 0.02 | CTLA4 MFI at 33.3 nM [2, 7]: 246401 | CTLA4 Fold change to WT CD80 [2, 6]: 1.57 | PD-L1 MFI at 33.3 nM ([3]; Table E4, 33.3 nM): 19880 | PD-L1 Fold change to WT CD80 [3, 6]: 1.67 | Ratio of PDL1:CD28 [3, 8]: 50

B3: E35D/M47V/N48KN68M/A71G/L85M (protein)
chain: VIHVTKEVKEVATLSCGHNVSVEELAQTRIYWQKDKKMVLTMMSGDVKIWPEYKNRTIFDITNNLSIMILGLRPSDEGTYECVVMKYEKDAFKREHLAEVTLSVKAD
CD28 Fold change to WT CD80 [1, 9]: 9.6 | CD28 MFI at 33.3 nM [1, 10]: 302 | CTLA4 Fold change to WT CD80 [2, 9]: 9.5 | CTLA4 MFI at 33.3 nM ([2]; Table E11, 33.3 nM): 16604 | PD-L1 Fold change to WT CD80 [3, 9]: 442.1 | PD-L1 MFI at 33.3 nM ([3]; Table E11, 33.3 nM): 22770 | Ratio of PDL1:CD28 ([3]; Table E11, MFI at 33.3 nM): 75.4

B4: E35D/M47V/N48KN68M/L85M (protein)
chain: VIHVTKEVKEVATLSCGHNVSVEELAQTRIYWQKDKKMVLTMMSGDVKIWPEYKNRTIFDITNNLSIMILALRPSDEGTYECVVMKYEKDAFKREHLAEVTLSVKAD
CD28 Fold change to WT CD80 [1, 9]: 7.8 | CD28 MFI at 33.3 nM [1, 10]: 245 | CTLA4 Fold change to WT CD80 [2, 9]: 8.9 | CTLA4 MFI at 33.3 nM ([2]; Table E11, 33.3 nM): 15581 | PD-L1 Fold change to WT CD80 [3, 9]: 147.9 | PD-L1 MFI at 33.3 nM ([3]; Table E11, 33.3 nM): 7618 | Ratio of PDL1:CD28 ([3]; Table E11, MFI at 33.3 nM): 31.1

B5: E35D/M47LN68M/A71G/L85Q/D90G (protein, UniProt P33681 35-288, looked up, variant E35D M47L V68M A71G L85Q D90G)
T-lymphocyte activation …: VIHVTKEVKEVATLSCGHNVSVEELAQTRIYWQKDKKMVLTMMSGDLNIWPEYKNRTIFDITNNLSIMILGLRPSDEGTYECVVQKYEKGAFKREHLAEVTLSVKADFPTPSISDFEIPTSNIRRIICSTSGGFPEPHLSWLENGEELNAINTTVSQDPETELYAVSSKLDFNMTTNHSFMCLIKYGHLRVNQTFNWNTTKQEHFPDNLLPSWAITLISVNGIFVICCLTYCFAPRCRERRRNERLRRESVRPV
CD28 MFI at 33.3 nM ([1]; Table E14, Jurkats (CD28), 33.3 nM): 1400 | CTLA4 MFI at 33.3 nM ([2]; Table E14, 33.3 nM): 10332

B9: M47L/V68M/L85Q (protein)
chain: VIHVTKEVKEVATLSCGHNVSVEELAQTRIYWQKEKKMVLTMMSGDLNIWPEYKNRTIFDITNNLSIMILALRPSDEGTYECVVQKYEKDAFKREHLAEVTLSVKAD
CD28 MFI at 33.3 nM [1, 11]: 60.9 | CTLA4 MFI at 33.3 nM ([2]; Table E19, 33.3 nM): 11134 | PD-L1 MFI at 33.3 nM ([3]; Table E19, 33.3 nM): 4039

B11: H18Y/E35D/M47V/V68M/A71G (protein, UniProt P33681 35-288, looked up, variant H18Y E35D M47V V68M A71G)
T-lymphocyte activation …: VIHVTKEVKEVATLSCGYNVSVEELAQTRIYWQKDKKMVLTMMSGDVNIWPEYKNRTIFDITNNLSIMILGLRPSDEGTYECVVLKYEKDAFKREHLAEVTLSVKADFPTPSISDFEIPTSNIRRIICSTSGGFPEPHLSWLENGEELNAINTTVSQDPETELYAVSSKLDFNMTTNHSFMCLIKYGHLRVNQTFNWNTTKQEHFPDNLLPSWAITLISVNGIFVICCLTYCFAPRCRERRRNERLRRESVRPV
CD28 MFI at 33.3 nM [1, 12]: 3227 | Relative Luciferase Units (RLU), CD80 Conc 5.0 nM ([4]; Table E24): 963 RLU | PD-L1 MFI at 33.3 nM [3, 13]: 64919

B12: H18V/E35D/M47V/V68M/A71G/D90G (protein, UniProt P33681 35-288, looked up, variant H18V E35D M47V V68M A71G D90G)
T-lymphocyte activation …: VIHVTKEVKEVATLSCGVNVSVEELAQTRIYWQKDKKMVLTMMSGDVNIWPEYKNRTIFDITNNLSIMILGLRPSDEGTYECVVLKYEKGAFKREHLAEVTLSVKADFPTPSISDFEIPTSNIRRIICSTSGGFPEPHLSWLENGEELNAINTTVSQDPETELYAVSSKLDFNMTTNHSFMCLIKYGHLRVNQTFNWNTTKQEHFPDNLLPSWAITLISVNGIFVICCLTYCFAPRCRERRRNERLRRESVRPV
CD28 MFI at 33.3 nM [1, 12]: 2115 | Relative Luciferase Units (RLU), CD80 Conc 5.0 nM ([4]; Table E24): 854 RLU | PD-L1 MFI at 33.3 nM [3, 13]: 43588

B13: H18Y/A26P/E35D/M47V/V68M/A71G (protein, UniProt P33681 35-288, looked up, variant H18Y A26P E35D M47V V68M A71G)
T-lymphocyte activation …: VIHVTKEVKEVATLSCGYNVSVEELPQTRIYWQKDKKMVLTMMSGDVNIWPEYKNRTIFDITNNLSIMILGLRPSDEGTYECVVLKYEKDAFKREHLAEVTLSVKADFPTPSISDFEIPTSNIRRIICSTSGGFPEPHLSWLENGEELNAINTTVSQDPETELYAVSSKLDFNMTTNHSFMCLIKYGHLRVNQTFNWNTTKQEHFPDNLLPSWAITLISVNGIFVICCLTYCFAPRCRERRRNERLRRESVRPV
CD28 MFI at 33.3 nM [1, 12]: 6911 | Relative Luciferase Units (RLU), CD80 Conc 5.0 nM ([4]; Table E24): 821 RLU | PD-L1 MFI at 33.3 nM [3, 13]: 51521

B14: E35D/D46V/M47L/V68M/L85Q/E88D GS(G4S)3 (protein, UniProt P33681 35-288, looked up, variant E35D D46V M47L V68M L85Q E88D)
T-lymphocyte activation …: VIHVTKEVKEVATLSCGHNVSVEELAQTRIYWQKDKKMVLTMMSGVLNIWPEYKNRTIFDITNNLSIMILALRPSDEGTYECVVQKYDKDAFKREHLAEVTLSVKADFPTPSISDFEIPTSNIRRIICSTSGGFPEPHLSWLENGEELNAINTTVSQDPETELYAVSSKLDFNMTTNHSFMCLIKYGHLRVNQTFNWNTTKQEHFPDNLLPSWAITLISVNGIFVICCLTYCFAPRCRERRRNERLRRESVRPV
modifications: GS(G4S)3 linker
CD28 MFI at 33.3 nM ([1]; Table E25, linker variants, 33.3 nM, Jurkats (CD28)): 267 | Relative Luciferase Units (RLU), CD80 Conc 5.0 nM ([4]; Table E26, linker variants): 1592 RLU | PD-L1 MFI at 33.3 nM ([3]; Table E25, linker variants, 33.3 nM): 22596

More lines, now with the values ahead:

CD28 MFI at 33.3 nM [1, 11]: 37.9 | CTLA4 MFI at 33.3 nM ([2]; Table E19, 33.3 nM): 568 | PD-L1 MFI at 33.3 nM ([3]; Table E19, 33.3 nM): 118
B6: V68M (protein)
chain: VIHVTKEVKEVATLSCGHNVSVEELAQTRIYWQKEKKMVLTMMSGDMNIWPEYKNRTIFDITNNLSIMILALRPSDEGTYECVVLKYEKDAFKREHLAEVTLSVKAD

CD28 MFI at 33.3 nM [1, 11]: 35 | CTLA4 MFI at 33.3 nM ([2]; Table E19, 33.3 nM): 3002
B7: L85Q (protein)
chain: VIHVTKEVKEVATLSCGHNVSVEELAQTRIYWQKEKKMVLTMMSGDMNIWPEYKNRTIFDITNNLSIVILALRPSDEGTYECVVQKYEKDAFKREHLAEVTLSVKAD

CD28 MFI at 33.3 nM [1, 11]: 91.7 | CTLA4 MFI at 33.3 nM ([2]; Table E19, 33.3 nM): 3288 | PD-L1 MFI at 33.3 nM ([3]; Table E19, 33.3 nM): 347
B8: V68M/L85Q (protein)
chain: VIHVTKEVKEVATLSCGHNVSVEELAQTRIYWQKEKKMVLTMMSGDMNIWPEYKNRTIFDITNNLSIMILALRPSDEGTYECVVQKYEKDAFKREHLAEVTLSVKAD

CD28 MFI at 33.3 nM [1, 11]: 170 | CTLA4 MFI at 33.3 nM ([2]; Table E19, 33.3 nM): 4370
B10: N48K/K89N (protein)
chain: VIHVTKEVKEVATLSCGHNVSVEELAQTRIYWQKEKKMVLTMMSGDMKIWPEYKNRTIFDITNNLSIVILALRPSDEGTYECVVLKYENDAFKREHLAEVTLSVKAD
